Test results from patent publication US12365732 (23ANDME, dated 2025).

Biological target: T1, hCD155 (Table 28) (human, UniProt P15151 21-343, limits assumed)
T1 sequence (looked up): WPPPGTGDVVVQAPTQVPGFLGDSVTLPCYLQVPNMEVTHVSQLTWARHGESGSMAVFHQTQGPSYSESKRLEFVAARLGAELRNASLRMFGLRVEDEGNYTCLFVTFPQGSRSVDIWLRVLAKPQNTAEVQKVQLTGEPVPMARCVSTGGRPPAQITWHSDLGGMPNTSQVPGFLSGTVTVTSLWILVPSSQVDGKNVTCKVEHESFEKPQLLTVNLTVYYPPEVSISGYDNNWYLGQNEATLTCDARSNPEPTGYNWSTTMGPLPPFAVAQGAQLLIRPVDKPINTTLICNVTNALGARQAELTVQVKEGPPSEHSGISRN
Assay: SPR 25C, biotin-CD226-His captured, steady state fitting
Method: To determine the binding affinity to hu-CD226 and cy-CD226 of mAb1.v7.NGS8, h10G1, hCD155 and anti-hCD226 antibody DX11 (Abcam, cat #Ab33397), SPR measurement with a BIACORE™ 8K instrument was performed. Briefly, a 1:4 dilution of Biotin CAPture Reagent (GE Healthcare) into HBS-EP buffer (0.01 M HEPES pH 7.4, 0.15 M NaCl, 3 mM EDTA, 0.005% Surfactant P20) was applied to the chip at 2 µL/min flow rate. For the kinetics measurements, 5 µg/ml of biotinylated hu-CD226 His tag (Sino biological, cat #10565-H08H) and cy-CD226 His tag (Arco biosystems, cat #DN1-052H9) was captured at 10 µL/min to achieve ~50 response units in the second flow cell (FC2). FC1 was kept as a reference. Next, 3-fold serial dilutions of IgG in HBS-P buffer (0.01 M HEPES pH 7.4, 0.15 M NaCl, 0.005% surfactant P20) from low (1.3 nM) to high (1000 nM) concentration were injected (flow rate: 30 µL/min) at 25° C. The sensorgram was recorded and subject to reference and buffer subtraction before evaluating by BIACORE® 8K Evaluation Software (version 1.1.1.7442). Association rates ($kon$) and dissociation rates ($koff$) were calculated using a simple one-to-one Langmuir binding model. The equilibrium dissociation constant (K_D) value was calculated as the ratio of $koff/kon$. […]

Kd: 0.0675 µM
B1: cy-CD226 His tag (receptor, cynomolgus monkey)
chain: EEVLWHTSVPFAENMSLECVYPSVGILTQVEWFKIGTEKDSIAIFSPTHGMVIRKPYAERVYFLNSTMASNNMTLFFRNASEDDVGYYSCSLYTYPQGTWQKVIQVVQSDGFEAAVPPNSHIVSEPGKNITLTCQPQMTWPVQEVRWEKVQPHQIDLLTYCDLVHGRNFTSKFPRQIVSNCSHGSWSFIVVPDVTASDSGLYRCHLQASAGENETFVMRLTVAEGQTDN
modifications: biotinylated
